Source: US20140296500, “Methods and Compositions of Nucleic Acid Ligands for Detection of Clinical Analytes Related to Human Health” (OTC BIOTECHNOLOGIES, LLC, published 2014)

B1: hGH aptamer SEQ 348 (ssDNA)
DNA: ATCCGTCACACCTGCTCTAGGATTTTTGTTATGTCGGCCACGATGGGGACCCCGTGGTGTTGGCTCCCGTAT
B2: hGH aptamer SEQ 377 (ssDNA)
DNA: ATACGGGAGCCAACACCACATGACGGGTGACTAAAAGACGAAATCTCCCAATTAAGAGCAGGTGTGACGGAT
B3: hGH aptamer SEQ 379 (ssDNA)
DNA: ATACGGGAGCCAACACCACCTGAGCGCCGGCAGCACTCACTATTTGTCCCCGCAAGAGCAGGTGTGACGGAT
B4: hGH aptamer SEQ 336 (ssDNA)
DNA: ATCCGTCACACCTGCTCTGGGGTGTATCCTTTTATGGATCTGCGAGAATAAGTCTGGTGTTGGCTCCCGTAT
B5: hGH aptamer SEQ 338 (ssDNA)
DNA: ATCCGTCACACCTGCTCTTGGGTGAATCAATTGTTCGTACTCCACGTGATTCTGTGGTGTTGGCTCCCGTAT
B6: hGH aptamer SEQ 343 (ssDNA)
DNA: ATACGGGAGCCAACACCATAAGCAGAGAACTACAAGACGATCCCATATTCCAAAGAGCAGGTGTGACGGAT
B7: hGH aptamer SEQ 388 (ssDNA)
DNA: ATCCGTCACACCTGCTCTAAAACATGGGCCCAATTAGGCGTGATCCAACCCGTCTGGTGTTGGCTCCCGTAT
B8: hGH aptamer SEQ 345 (ssDNA)
DNA: ATACGGGAGCCAACACCAGGTTGGCGTCAAAAGAAATAAGGGATATACATTAGAGAGCAGGTGTGACGGAT

Legend:
[1] = target: T1, CTx peptide (C-telopeptide of human type I bone collagen, 26 AA …) (Homo sapiens, UniProt P02452 P02452:1193-1218); test: FRET beacon; LOD 1 ng/ml; 0.5 M NaCl, 10 mM Tris-HCl, 1 mM MgCl2, pH 7.5-7.6, RT; settings: label: 5'-TYE665, 3'-Iowa Black RQ
T1 sequence (P02452 1193-1218, one chain of several): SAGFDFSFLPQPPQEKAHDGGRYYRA
Procedure: Generally, the aptamer beacons or competitive FRET-aptamer complexes are then diluted to a final concentration of 1-5 μg/ml in 1×BB and equally dispensed to polystyrene or methacrylate cuvettes in which 1 ml of unlabeled target at various concentrations in 1×BB, PBS or diluted blood, plasma, serum, saliva, aspirate or urine has been added already. Cuvettes are gently mixed for 15 to 20 minutes at RT prior to reading their fluorescence in the homogeneous beacon or competitive-displacement FRET assay formats using a spectrofluorometer having gratings to vary the excitation wavelength and emission scanning ability or a stationary, handheld or otherwise portable fluorometer having a more restricted or fixed excitation and emission optical filter set with a range of wavelengths for excitation and emission.
FIGS. 3A-3F show how each of the aptamer beacons derived and defined from FIG. 2 behaved as a function of decreasing CTx peptide concentration (serial two-fold dilutions beginning with 100 micrograms per ml and ending with zero CTx peptide) in 1× binding buffer (1×BB; 0.5 M NaCl, 10 mM Tris-HCl, pH 7.5-7.6, 1 mM MgCl₂). In the figures “h” means hour or O'clock so that 2 h refers to the 2 O'clock loop from FIG. 2, while F means forward-primed and R means reverse-primed by reference to FIG. 2 as well. […]

[2] = target: T2, CTx 8-AA peptide (EKAHDGGR) (Homo sapiens, UniProt P02452 P02452:1207-1214); test: FRET beacon specificity; no response with 8-AA segment; settings: label: 5'-TYE665, 3'-Iowa Black RQ
T2 chain: EKAHDGGR

[3] = target: Bovine serum albumin (BSA) (Bos taurus, UniProt P02769 P02769:25-607); test: FRET beacon; unexpected cross-reactivity with BSA; settings: label: 5'-TYE665, 3'-Iowa Black RQ
Bovine serum albumin (BSA), sequence (P02769 25-607, one chain of several): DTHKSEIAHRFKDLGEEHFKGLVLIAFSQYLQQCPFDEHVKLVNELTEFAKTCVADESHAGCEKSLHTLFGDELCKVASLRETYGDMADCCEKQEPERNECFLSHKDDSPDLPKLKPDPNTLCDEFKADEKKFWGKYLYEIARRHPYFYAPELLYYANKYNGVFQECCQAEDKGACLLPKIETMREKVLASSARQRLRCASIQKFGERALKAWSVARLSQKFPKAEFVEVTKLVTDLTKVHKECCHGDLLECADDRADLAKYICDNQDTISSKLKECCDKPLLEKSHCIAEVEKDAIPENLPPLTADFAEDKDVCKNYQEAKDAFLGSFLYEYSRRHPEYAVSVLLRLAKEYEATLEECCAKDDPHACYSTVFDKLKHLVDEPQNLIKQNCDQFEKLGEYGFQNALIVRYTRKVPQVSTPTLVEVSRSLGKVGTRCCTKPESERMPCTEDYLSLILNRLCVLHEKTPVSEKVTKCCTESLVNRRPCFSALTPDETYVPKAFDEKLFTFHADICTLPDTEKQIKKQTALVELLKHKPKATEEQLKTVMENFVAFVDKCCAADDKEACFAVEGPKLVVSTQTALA

[4] = target: T3, Recombinant human growth hormone (r-hGH) (Homo sapiens, UniProt P01241 P01241:27-217); test: ELONA; binds r-hGH better than natural hGH; settings: tags: >95% pure research grade; label: 5'-biotin
T3 sequence (P01241 27-217, one chain of several): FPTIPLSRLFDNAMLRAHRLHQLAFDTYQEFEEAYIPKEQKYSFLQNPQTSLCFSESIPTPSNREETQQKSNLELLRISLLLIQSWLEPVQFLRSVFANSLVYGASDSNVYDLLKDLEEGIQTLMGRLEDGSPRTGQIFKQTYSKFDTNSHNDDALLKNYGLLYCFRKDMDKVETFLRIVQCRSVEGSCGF
Procedure: FIGS. 16A-16D show four more examples of aptamers (from the SEQ ID NOs 325-526) that bind recombinant human growth hormone (“r-hGH”) better than the natural form of hGH or somatotropin to help discriminate the artificial form in potential drug or doping tests for atheletes and growth-challenged children. The ELISA-like assays were conducted with the named aptamers (SEQ ID NOs 348, 377, 379 and 388) instead of antibodies in each case and absorbances were red at 405 nm with an automated microplate reader after a 15 minute development time in the presence of ABTS substrate as is standard in the diagnostics industry.

[5] = target: T3, Recombinant human growth hormone (r-hGH); test: ELONA; binds r-hGH better than natural hGH; settings: tags: >95% pure research grade; label: 5'-biotin; remark: listed apart in the source
Procedure: FIGS. 15A-15D show four examples of aptamers from the SEQ ID NOs 325-526 that bind recombinant human growth hormone (r-hGH; >95% pure research grade) better than the natural form of hGH or somatotropin in ELISA-like assays to help discriminate the artificial form of hGH in potential drug or doping tests for athletes, or to monitor serum levels of exogendus doses of r-hGH administered to children with growth deficits. The ELISA-like assays were conducted with the named aptamers (SEQ ID NOs 336, 338, 343 and 345) instead of antibodies in each case and absorbances were red at 405 nm with an automated microplate reader after a 15 minute development time in the presence of ABTS substrate as is standard in the diagnostics industry.

[6] = target: T1, CTx peptide (C-telopeptide of human …); test: FRET beacon; almost as good as 15-base version, slightly higher background; settings: label: 5'-TYE665, 3'-Iowa Black RQ
Procedure: Cuvettes are gently mixed for 15 to 20 minutes at RT prior to reading their fluorescence in the homogeneous beacon or competitive-displacement FRET assay formats using a spectrofluorometer having gratings to vary the excitation wavelength and emission scanning ability or a stationary, handheld or otherwise portable fluorometer having a more restricted or fixed excitation and emission optical filter set with a range of wavelengths for excitation and emission.
FIGS. 3A-3F show how each of the aptamer beacons derived and defined from FIG. 2 behaved as a function of decreasing CTx peptide concentration (serial two-fold dilutions beginning with 100 micrograms per ml and ending with zero CTx peptide) in 1× binding buffer (1×BB; 0.5 M NaCl, 10 mM Tris-HCl, pH 7.5-7.6, 1 mM MgCl₂). In the figures “h” means hour or O'clock so that 2 h refers to the 2 O'clock loop from FIG. 2, while F means forward-primed and R means reverse-primed by reference to FIG. 2 as well. […] The CTx 2R-2h loop was optimal for FRET-based detection because it gives the greatest spread or separation for various two-fold serial dilutions of the 26-AA CTx peptide beginning at 100 μg/ml. The CTx 2F-10 h loop was also noteworthy, but could not discriminate many of the different CTx concentrations. […]

Row | Binder | binding result [4] | binding result [5] | other results
1 | GGTGGTGTTGGCTCC (ssDNA) [CTx 2R-2h 15-base beacon] |  |  | binding result [1]: binds; binding result [2]: no binding; binding result [3]: binds
2 | B1 | binds |  | 
3 | B2 | binds |  | 
4 | B3 | binds |  | 
5 | B4 |  | binds | 
6 | B5 |  | binds | 
7 | B6 |  | binds | 
8 | B7 | binds |  | 
9 | GTGGTGTTGGCTC (ssDNA) [CTx 2R-2h 13-base beacon] |  |  | binding result [6]: binds
10 | B8 |  | binds | 
